Consider 1 substance from US20200384107A1.

The assay addresses CD40 (as in Table 2, species and form not stated). Put plainly: binding kinetics, method not stated.

One may read the Kd as the free concentration of one partner at which half of the binding sites on the other are occupied at equilibrium, for simple one-to-one binding. Read a low Kd as tighter binding. Broadly, the koff is the rate constant with which the complex falls apart. In general, kon refers to the second-order rate constant of association. Lower therefore signals slower complex formation. Substance 5D12 (anti-CD40 antibody) had a Kd of 10.2 nM, a koff of 1.54e-05 s⁻¹ and an on-rate constant (kon) of 1510 M⁻¹ s⁻¹.
